The source of these data is patent US7445940.

The assay deals with human endoglin (human) (UniProt P17813). The assay is described as follows: cell-based or functional assay.
UniProt P17813, sequence (P17813 26-658): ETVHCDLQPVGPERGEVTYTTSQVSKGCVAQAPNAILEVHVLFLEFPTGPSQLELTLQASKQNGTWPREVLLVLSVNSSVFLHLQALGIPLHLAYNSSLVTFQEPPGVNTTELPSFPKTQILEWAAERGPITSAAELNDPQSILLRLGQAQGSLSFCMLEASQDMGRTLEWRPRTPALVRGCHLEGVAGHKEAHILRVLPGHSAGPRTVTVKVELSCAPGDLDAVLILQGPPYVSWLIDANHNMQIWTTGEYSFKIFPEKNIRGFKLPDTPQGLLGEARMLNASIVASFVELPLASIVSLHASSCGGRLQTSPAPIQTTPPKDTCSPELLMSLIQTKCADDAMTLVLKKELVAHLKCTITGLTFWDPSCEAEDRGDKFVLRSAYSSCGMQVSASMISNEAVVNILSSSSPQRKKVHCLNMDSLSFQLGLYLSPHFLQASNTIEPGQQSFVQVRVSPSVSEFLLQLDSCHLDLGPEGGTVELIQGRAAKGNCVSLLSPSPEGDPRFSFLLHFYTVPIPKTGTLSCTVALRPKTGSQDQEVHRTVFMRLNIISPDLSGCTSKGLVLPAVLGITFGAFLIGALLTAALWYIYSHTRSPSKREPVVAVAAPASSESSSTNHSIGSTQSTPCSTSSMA

“Murine monoclonal antibody (MAb) 44G4 specific for human endoglin” had an EVT outgrowth and migration (EVT outgrowths/villous tip), 24 h after addition (day 2 of culture) (EVT outgrowths/villous tip) of 2.03; a concentration of maximal stimulation of EVT outgrowth of 1 µg/mL; a fibronectin (FN) synthesis by villous explants, fold increase relative to control of 8 fold.
